{"source": "patent US20170233470A1", "about": "(INSERM INSTITUT NATIONAL DE LA SANT ET DE LA RECHERCHE M …, published 2017)", "binders": {"B1": {"name": "NTSp27-7.4 (antibody, V domains shown)", "VH": "DVKLVESGGGLVKLGGSLKLSCAASGFTFSGYYMSWVRQTPEKRLELVAAINNYGDNTNYPDTVKGRFSVSRDNAKNTLYLEMNSLKSEDTALYYCARLANYANQRGAMDYWGQGTSVTVSS", "VL": "DIQMTHTTSSLSASLGDRVTISCRASQDIANYLNWYQQKPDGTVTLLIYYTSRLHSGVPSRFSGSGSGTDYSLTINNLDQEDIATYFCQQGYTLPPTFGGGTKLEIK"}}, "target": "Neurotensin (NTS) (UniProt P30990 151-163)", "test": "cell-based or functional assay"}
{"binder": "B1", "values": [{"measurement": "apoptosis of A2780 cells (Annexin V-FITC/PI, flow cytometry), fold increase relative to control cells", "result": 2.5, "unit": "fold"}, {"measurement": "apoptosis of SKOV3 cells (Annexin V-FITC/PI, flow cytometry), fold increase relative to control cells", "result": 8.2, "unit": "fold"}]}
